These results are taken from PMC5803617 (Journal of Cachexia, Sarcopenia and Muscle, 2017).

As usually defined, the Kd is a measure of binding affinity in units of concentration. High values mean a looser complex, low ones a tighter complex.

In assay [1] the target is MuRF1/telethonin complex co-expressed in yeast from pBridge::MuRF1/telethonin (rat) (UniProt Q91Z63). As to the kind of experiment: yeast three-hybrid.
The target in assay [2] is GST-MuRF1/telethonin complexes, cross-linked (rat) (UniProt Q91Z63). As to the kind of experiment: SPR.
Another assay deals with GST-MuRF1 (rat, UniProt Q91Z63 1-351). As to the kind of experiment: SPR. For orientation: Surface plasmon resonance follows binding to a sensor surface in real time, without labels.
Sequence of GST-MuRF1 (Q91Z63 whole entry): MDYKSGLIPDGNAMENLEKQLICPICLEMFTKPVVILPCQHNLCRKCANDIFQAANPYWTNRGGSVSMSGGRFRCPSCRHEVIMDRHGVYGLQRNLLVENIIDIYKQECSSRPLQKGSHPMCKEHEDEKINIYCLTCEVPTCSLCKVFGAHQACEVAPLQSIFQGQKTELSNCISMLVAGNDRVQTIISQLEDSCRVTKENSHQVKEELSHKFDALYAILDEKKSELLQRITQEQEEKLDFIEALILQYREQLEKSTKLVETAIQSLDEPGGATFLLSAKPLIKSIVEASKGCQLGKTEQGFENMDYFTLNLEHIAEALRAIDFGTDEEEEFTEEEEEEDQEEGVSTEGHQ

Sequence of MuRF1/telethonin complex co-expressed in yeast from pBridge::MuRF1/telethonin (rat) (Q91Z63 whole entry, looked up, one chain of several): as the sequence (Q91Z63 whole entry) above

The molecule “UBE2E1 fused to the activation domain of GAL4 (from UniProt P52482 1-193) (enzyme)” showed a percent positive clones in assay [1] of 93%.

“UBE2E1, untagged recombinant (from UniProt P52482 1-193) (enzyme)”: the Kd in assay [2] was determined as 5 nM.

B1: UBE2G1, untagged recombinant (enzyme, human, UniProt P62253 1-170, looked up)
chain: MTELQSALLLRRQLAELNKNPVEGFSAGLIDDNDLYRWEVLIIGPPDTLYEGGVFKAHLTFPKDYPLRPPKMKFITEIWHPNVDKNGDVCISILHEPGEDKYGYEKPEERWLPIHTVETIMISVISMLADPNGDSPANVDAAKEWREDRNGEFKRKVARCVRKSQETAFE
Consider B1, for which, in the assay with GST-MuRF1, the “ka of the E2G1 dimer (heterogeneous analyte model)” value is ~300 M⁻¹ s⁻¹ and the “ka of the E2G1 monomer (heterogeneous analyte model)” value is ~4000 M⁻¹ s⁻¹. Moreover, the percent positive clones in assay [1] amounted to 58%.
